19 compounds from patent US12662542B2, “Agnostic anti-mullerian hormone receptor binding peptides” (OVARES D LLC, priority 2019, dated 2026) can be followed below.

One series concerns granulosa cells (GCs). Briefly: Cell Counting Kit-8 (CCK-8) proliferation and cytotoxicity assay. The class given is cell-based, human. As to the method:
GCs were isolated at the time of oocyte retrieval from three IVF/ICSI patients with tubal factor infertility as previously reported. Follicular aspirates were centrifuged at 900×g at room temperature. Blood contaminants were removed from GCs by Histopaque™ 1077 (Sigma-Aldrich™, St. Louis, MO, USA) gradient centrifugation at 800×g for 20 min at room temperature. The GC pellet was resuspended in a 20-ml volume of medium [Dulbecco's modified Eagle's medium/Ham's Nutrient Mixture F-12 (Gibco, Thermo Fisher Scientific, Inc., Waltham, MA, USA) with 10% fetal bovine serum (make) and washed by a further 10-min centrifugation at 500×g. The GC pellet was then resuspended in 1 ml GC preparation medium containing 0.02% (w/v) EDTA and gentle repeated pipetting was performed to break up any cellular clumps. Following further washing, the cell stock was resuspended in the GC culture medium. The cells were seeded in nine-well cell culture plates at a density of 100,000 cells/well in medium and incubated for 24 hours with PBS (control), the NegAMHR2BP (SEQ ID NO: 4), or AMHR2BP (SEQ ID NO: 1).
For determination of cytotoxicity of the novel AMHR2BP (SEQ ID NO: 1), a Cell Counting Kit-8 (CCK-8) proliferation and cytotoxicity assay was used. CCK-8 is a as a sensitive colorimetric assay where Dojindo's highly water-soluble tetrazolium salt is reduced by dehydrogenase activities in cells. Living cells reduce the salt, producing a yellow-color formazan dye, which is soluble in the culture media. The amount of dye, generated by the activities of dehydrogenases in GCs, is directly proportional to the number of living cells. CCK-8 detection sensitivity is very high. We tested the following: (a) AMHR2BP (SEQ ID NO: 1) concentrations: 20 μg/ml, 50 μg/ml, 80 μg/ml, in addition to (b) NegAMHR2BP (SEQ ID NO: 4) 80 μg/ml, and (c) untreated cells (control).

Another series has as its target T1, AMH-R2 (Homo sapiens, UniProt Q16671).
T1 construct: GST
T1 sequence (Q16671 18-573): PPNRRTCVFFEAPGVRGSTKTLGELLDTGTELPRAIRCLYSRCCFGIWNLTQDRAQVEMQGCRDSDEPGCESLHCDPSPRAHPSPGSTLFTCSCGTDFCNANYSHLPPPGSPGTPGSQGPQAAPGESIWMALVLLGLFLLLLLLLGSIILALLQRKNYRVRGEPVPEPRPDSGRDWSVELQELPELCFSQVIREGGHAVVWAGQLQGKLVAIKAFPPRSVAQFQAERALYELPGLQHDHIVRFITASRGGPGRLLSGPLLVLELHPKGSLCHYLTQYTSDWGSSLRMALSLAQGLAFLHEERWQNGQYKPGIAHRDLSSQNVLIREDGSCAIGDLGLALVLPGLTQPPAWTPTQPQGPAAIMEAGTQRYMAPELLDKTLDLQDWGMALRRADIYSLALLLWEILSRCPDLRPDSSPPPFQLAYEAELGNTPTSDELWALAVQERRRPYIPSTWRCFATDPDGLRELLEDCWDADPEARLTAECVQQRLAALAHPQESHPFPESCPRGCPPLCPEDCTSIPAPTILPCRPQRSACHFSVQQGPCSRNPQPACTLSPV
Kind of series: peptide microarray assay identifying AMH receptor binding peptides. The settings on record: microarray signal; for Average: average of Rep 1 and Rep 2; for Rep 1: replicate 1; for Rep 2: replicate 2. An excerpt:
In view of the several actions of AMH, and because of the need for AMH receptor agonists and/or antagonist that can modify the activity of one or more of the AMH receptors, provided herein are AMH receptor binding peptides that modulate the activity of the AMH receptor, as described herein. Briefly, it was hypothesized that peptides that bind AMH receptors could be generated based on the amino acid sequence of the AMH biding site of the AMH-R2 receptor. More particularly, based on the amino acid sequence of the AMH-R2 that is responsible for binding AMH, as well as the amino acid sequences of AMH-R2 that are near the AMH binding site, a peptide microarray was used to identify candidate AMH receptor binding peptides that can activate AMH-R2 and thus produce similar effects to native AMH.
To identify candidate AMH receptor binding peptides described herein, a custom peptide library composed of replicate copies of a 124,000 17 mer peptide microarray was synthesized (Arizona State University, Tempe, AZ) using the method described in Legutki, J. B., et al., Scalable high-density peptide arrays for comprehensive health monitoring. Nat Commun., volume 5, 4785 (2014). The slide was assembled into an Arrayit 4×24 Hybridization Cassette and each peptide microarray was blocked with 150 uL of 30% human sera in 1×PBST for 1 hour at room temperature with shaking After blocking, the slide was washed 3× with 1×PBST using a Biotek plate washer prior to addition of protein targets. Each protein sample was diluted in 30% human sera in 1×PBST and 150 uL of each sample was dispensed into the appropriate wells in the cassette and incubated for 1 hour at 37 C with rotation at 300 rpm on a ThermoMix™ 500 heater/shaker.
After incubation, the cassette was dismantled, the slide washed 3 times in 1×PBST, rinsed three times with distilled, deionized water (ddH2O), and dried in a centrifuge for 2 minutes at 800 rpm. Secondary antibody (anti-GST, GE Healthcare™) was prepared at 10 nM in 30% human sera in 1×PBST and dispensed onto the slide. The slide was incubated for 1 hour at 37 C with rotation at 300 rpm as before. The slide was then washed 3 times in 1×PBST, rinsed 3 times with ddH2O, and dried in a centrifuge for 2 minutes at 800 rpm. Detection antibody, 10 nM Alexa Flour 647 donkey anti-goat IgG (H+L) (ThermoFisher Scientific™), was prepared in 0.75% casein in 1×PBST and dispensed onto the slide. The slide was covered and incubated for 1 hour at 37 C with rotation as before. The slide was washed 3 times in 1×PBST, rinsed 3 times with ddH2O, and dried in a centrifuge for 2 minutes at 800 rpm. The slide was scanned on an Innopsys™ Inoscan 910AL scanner and the resulting TIFF files were analyzed using the Genepix™ Pro 6.0 software. Data files were exported and analyzed using Microsoft Excel™ and JMP™ software.

Square brackets hold non-standard residues; d marks the D form. Ends that are not written are not given here. Peptide text beside a SMILES is read from it.

`CC(C)C[C@@H](NC(=O)[C@@H](C)NC(=O)[C@@H](NC(=O)CNC(=O)[C@H](CO)NC(=O)[C@@H](NC(=O)[C@@H](CCCNC(=N)N)NC(=O)[C@H](Cc1ccccc1)NC(=O)[C@H](CCC(N)=O)NC(=O)[C@H](CC(N)=O)NC(=O)[C@H](Cc1ccc(O)cc1)NC(=O)[C@H](C)NC(=O)[C@H](CC(N)=O)NC(=O)[C@H](CO)NC(=O)CNC(=O)[C@@H](N)C(C)C)C(C)C)C(C)C)C(=O)N[C@@H](CO)C(=O)O` [SEQ ID NO: 1, VGSNAYNQFrVSGValS] (H-VGSNAYNQF[dR]VSGV[dA][dL]S-OH): the GCs considered lifeless in the series with granulosa cells (GCs) (20 μg/ml) is on record as 23%. Further, the “GCs that ceased function and were considered lifeless” value with granulosa cells (GCs) (80 μg/ml) is 74%.
Turning to `CC(C)C[C@@H](NC(=O)[C@@H](C)NC(=O)[C@@H](CCCNC(=N)N)NC(=O)[C@H](CCC(N)=O)NC(=O)[C@H](CC(N)=O)NC(=O)[C@@H](C)NC(=O)[C@H](CC(N)=O)NC(=O)[C@H](C)NC(=O)[C@H](Cc1ccccc1)NC(=O)[C@H](Cc1c[nH]cn1)NC(=O)[C@@H](CCCCN)NC(=O)[C@H](CC(N)=O)NC(=O)[C@H](CO)NC(=O)[C@@H](C)NC(=O)CNC(=O)[C@@H](Cc1c[nH]c2ccccc12)NC(=O)[C@H](N)CCCNC(=N)N)C(=O)O` [SEQ ID NO: 4, rwGaSNkHFANaNQral] (H-[dR][dW]G[dA]SN[dK]HFAN[dA]NQ[dR][dA][dL]-OH; N-terminus and C-terminus assumed), the GC toxicity entry in the series on granulosa cells (GCs) (80 μg/ml) is given as “low GC toxicity”.
Regarding “DGlGSVlArkNrrDaVl (DG[dL]GSV[dL]A[dR][dK]N[dR][dR]D[dA]V[dL]) [SEQ ID NO: 5]”, in the series with AMH-R2, the Average is reported as 65453, the “Rep 1” value was found to be 65431 and the “Rep 2” value is 65475.
With “EGlQSSAYNNYwrklVa (EG[dL]QSSAYNNY[dW][dR][dK][dL]V[dA]) [SEQ ID NO: 17]”, in the series with AMH-R2, the Average amounted to 61198, the “Rep 1” value came out at 60241 and the “Rep 2” value is recorded as 62155.
“FNGPSArNFYrHDVaVS (FNGPSA[dR]NFY[dR]HDV[dA]VS) [SEQ ID NO: 14]”: in the series with AMH-R2, the Average worked out at 61835, the “Rep 1” value is listed as 65284 and the “Rep 2” value came out at 58385.
For the compound “GGrSVSANlQrErkVaG (GG[dR]SVSAN[dL]Q[dR]E[dR][dK]V[dA]G) [SEQ ID NO: 19]”, in the series with AMH-R2, the Average turned out to be 56883, the “Rep 1” value is given as 55679 and the “Rep 2” value worked out at 58087.
For the compound “GSwSGAHNFrkSGVlSG (GS[dW]SGAHNF[dR][dK]SGV[dL]SG) [SEQ ID NO: 11]”, in the series with AMH-R2, the Average is 64458, the “Rep 1” value is reported as 65128 and the “Rep 2” value turned out to be 63787.
“GlQwSFANGQwrGalSG (G[dL]Q[dW]SFANGQ[dW][dR]G[dA][dL]SG) [SEQ ID NO: 12]”: in the series with AMH-R2, the Average is listed as 63783, the “Rep 1” value amounted to 64623 and the “Rep 2” value is 62943.
The matching figures for “GlYwSAYNPwrHValaS (G[dL]Y[dW]SAYNP[dW][dR]HV[dA][dL][dA]S) [SEQ ID NO: 18]”: 59177, 60848 and 57506.
Turning to “NGrSQAHNlrkaGValS (NG[dR]SQAHN[dL][dR][dK][dA]GV[dA][dL]S) [SEQ ID NO: 15]”, in the series with AMH-R2, the Average was 61488, the “Rep 1” value was found to be 62940 and the “Rep 2” value worked out at 60035.
On to “VGPSVAYNYrVSGValG (VGPSVAYNY[dR]VSGV[dA][dL]G) [SEQ ID NO: 6]”, for which, in the series with AMH-R2, the Average was found to be 65427, the “Rep 1” value came to 65462 and the “Rep 2” value is given as 65391.
The matching figures for “VGwSFAPNGYrlSGVlG (VG[dW]SFAPNGY[dR][dL]SGV[dL]G) [SEQ ID NO: 9]”: 65165, 65176 and 65153.
Consider “YGFPSArVNrYwNrHDa (YGFPSA[dR]VN[dR]Y[dW]N[dR]HD[dA]) [SEQ ID NO: 16]”, for which, in the series with AMH-R2, the Average is given as 61418, the “Rep 1” value is recorded as 60363 and the “Rep 2” value came to 62472.
Take “YwGwSHAkaNQFPNrla (Y[dW]G[dW]SHA[dK][dA]NQFPN[dR][dL][dA]) [SEQ ID NO: 3]”: in the series with AMH-R2, the Average amounted to 65484, the “Rep 1” value came out at 65502 and the “Rep 2” value came out at 65465.
The matching figures for “kGGYSNAYkHNPrVlGS ([dK]GGYSNAY[dK]HNP[dR]V[dL]GS) [SEQ ID NO: 7]”: 65425, 65521 and 65329.
The corresponding values for “kGSNArkNrrDaSGVal ([dK]GSNA[dR][dK]N[dR][dR]D[dA]SGV[dA][dL]) [SEQ ID NO: 20]” are 47876, 52284 and 43467.
In the case of “rGSYSNlFANSGErVGV ([dR]GSYSN[dL]FANSGE[dR]VGV) [SEQ ID NO: 13]”, in the series with AMH-R2, the Average was 63774, the “Rep 1” value was found to be 63996 and the “Rep 2” value is given as 63551.
The corresponding values for “rGrSQAYNErSGValSG ([dR]G[dR]SQAYNE[dR]SGV[dA][dL]SG) [SEQ ID NO: 10]” are 64591, 63931 and 65250.
As for “wHGwSGANlFPYrSGVS ([dW]HG[dW]SGAN[dL]FPY[dR]SGVS) [SEQ ID NO: 8]”, in the series with AMH-R2, the Average amounted to 65335, the “Rep 1” value came to 65158 and the “Rep 2” value is 65511.
